Measurements: patent publication US20210054062A1

Assays:
[1] = target: Recombinant human FAM19A5 protein (His-tagged) (human) (UniProt Q7Z5A7); assay: SPR (Biacore): FAM19A5 protein immobilised on the sensor chip, antibody injected at 1.1 to 90 nM in single cycle kinetics mode, 1:1 binding fit
[2] = target: Recombinant human FAM19A5 protein (His-tagged) (human) (UniProt Q7Z5A7); assay: SPR, FAM19A5 immobilised on sensor chip, antibody as analyte, single cycle kinetics, 1:1 fit
[3] = target: human FAM19A5-Fc protein (human), Q7Z5A7; assay: cell-based or functional assay
Chain of human FAM19A5-Fc protein (human), Q7Z5A7 (Q7Z5A7 44-132): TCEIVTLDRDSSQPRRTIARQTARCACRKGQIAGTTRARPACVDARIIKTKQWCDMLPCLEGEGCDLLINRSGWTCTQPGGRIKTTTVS

Chain of Recombinant human FAM19A5 protein (His-tagged) (human) (Q7Z5A7 44-132): as above

B1: Anti-FAM19A5 antibody ("S5-SG") (antibody, V domains shown)
VH: AVTLDESGGGLQTPGGALRLSCKASGFTFSSYQMGWVRQAPGKGLEWVSAINKGGSDTSYGSAVKGRATISRDNGQSTLYLQMNSLRAEDTAVYFCAKGSASYITAATIDAWGHGTEVIVSS
VL: ALTQPSSVSANPGETARITCSGGASSGYGYGWYQQKPSSAPLTVIYKDSERPSDIPSRFSGSSSGSTHTLTISGVQAEDEAVYFCGNDDYSSDSGYVGVFGAGTTLTVL
koff [1]: 0.00183 s⁻¹
kon [1]: 1.02e+06 M⁻¹ s⁻¹
Kd [2]: 1.8 nM
amount of phagocytosis (uptake of pHrodo Green E. coli BioParticles by BV2 cells) compared to the control group (PBS alone), about 10 hours after BioParticles [3]: 89%

B2: Reference anti-FAM19A5 antibody ("1-65") (antibody, V domains shown)
VH: AVTLDESGGGLQTPGGALSLVCKASGFTFSSYQMGWVRQAPGKGLEWVGVINKSGSDTSYGSAVKGRATISRDNGQSTVRLQLNNLRAEDTGTYFCAKGSASYITAATIDAWGHGTEVIVSS
VL: ALTQPSSVSANPGETVKITCSGGGSSGYGYGWYQQKSPSSAPLTVIYWNDKRPSDIPSRFSGSKSGSTHTLTITGVQAEDEAVYFCGNDDYSSDSGYVGVFGAGTTLTVL
koff [1]: 0.000567 s⁻¹
kon [1]: 1.64e+06 M⁻¹ s⁻¹
Kd [2]: 0.345 nM
amount of phagocytosis (uptake of pHrodo Green E. coli BioParticles by BV2 cells) compared to the control group (PBS alone), about 10 hours after BioParticles [3]: 86%

B3: Anti-FAM19A5 antibody ("SS01-13-s5") (antibody, V domains shown)
VH: AVTLDESGGGLQTPGGALRLSCKASGFTFSSYQMGWVRQAPGKGLEWVSAINKSGSDTSYGSAVKGRATISRDNGQSTLYLQMNSLRAEDTAVYFCAKGSASYITAATIDAWGHGTEVIVSS
VL: ALTQPSSVSANPGETARITCSGGASSGYGYGWYQQKPSSAPLTVIYKDSERPSDIPSRFSGSSSGSTHTLTISGVQAEDEAVYFCGNDDYSSDSGYVGVFGAGTTLTVL
koff [1]: 0.000822 s⁻¹
kon [1]: 373000 M⁻¹ s⁻¹
Kd [2]: 2.2 nM
amount of phagocytosis (uptake of pHrodo Green E. coli BioParticles by BV2 cells) compared to the control group (PBS alone), about 10 hours after BioParticles [3]: 96%
